Experimental data taken from article PMC5818494 (Scientific Reports, 2018).

Legend:
[1] = target: the molecule itself; experiment: crystal structure; MBP-JMJD7 (20 mg/ml), vapor diffusion, 100 mM Citrate Sodium, 20% PEG 3350, 4 °C; in the absence of α-KG; two molecules in one asymmetric unit
[2] = target: the molecule itself; experiment: crystal structure; mJMJD7 (from GST-mJMJD7, tag removed, 10 mg/ml), vapor diffusion, 0.1 M MES monohydrate pH6.0, 10% PEG4000, 4 °C; in the presence of α-KG; two molecules in one asymmetric unit

B1: MBP-JMJD7 fusion protein (with a truncated linker) (enzyme, mouse)
chain: MAEAALEAVRRALQEFPAAARDLNVPRVVPYLDEPPSPLCFYRDWVCPNRPCIIRNALQHWPALQKWSLSYLRATVGSTEVSVAVTPDGYADAVRGDRFVMPAERRLPISHVLDVLEGRAQHPGVLYVQKQCSNLPTELPQLLSDIESHVPWASESLGKMPDAVNFWLGDASAVTSLHKDHYENLYCVVSGEKHFLLHPPSDRPFIPYNLYTPATYQLTEEGTFRVVDEEAMEKVPWIPLDPLAPDLTQYPSYSQAQALHCTVRAGEMLYLPALWFHHVQQSHGCIAVNFWYDMEYDLKYSYFQLMDTLTRATGLD
notes: JMJD7, mouse; Crystallised as the fusion; MBP (PDB 1HSJ) was a search model for molecular replacement
stoichiometry N [1]: 2

B2: JMJD7 (mouse), JMJD7 protein alone generated from GST-JMJD7 fusion protein (enzyme)
chain: MAEAALEAVRRALQEFPAAARDLNVPRVVPYLDEPPSPLCFYRDWVCPNRPCIIRNALQHWPALQKWSLSYLRATVGSTEVSVAVTPDGYADAVRGDRFVMPAERRLPISHVLDVLEGRAQHPGVLYVQKQCSNLPTELPQLLSDIESHVPWASESLGKMPDAVNFWLGDASAVTSLHKDHYENLYCVVSGEKHFLLHPPSDRPFIPYNLYTPATYQLTEEGTFRVVDEEAMEKVPWIPLDPLAPDLTQYPSYSQAQALHCTVRAGEMLYLPALWFHHVQQSHGCIAVNFWYDMEYDLKYSYFQLMDTLTRATGLD
notes: JMJD7, mouse; The GST-derived, tag-free form is stated for the crystals; also called mJMJD7; GST-free JMJD7
stoichiometry N [2]: 2
